Values joined by “and” are separate entries in the source; they are usually repeats but may differ in a detail not shown here. Equal values may be shown once.
B1: sybody Sb5^LRRC8A (VHH)
VHH: QVQLVESGGGLVQAGGSLRLSCAASGFPVAQEIMTWYRQAPGKEREWVAAISSIGDTTAYADSVKGRFTISRDNAKNTVYLQMNSLKPEDTAVYYCAVNVGFTYKGQGTQVTVSA
notes: concave library; Synthetic nanobody selected by ribosome and phage display against full-length LRRC8A; For electrophysiology expressed in HEK293 cells with C-terminal Venus-myc-SBP; source: E. coli MC1061, periplasmic expression, purified (Ni-NTA, SEC on Superdex 75)
B2: sybody Sb3^LRRC8A (VHH)
VHH: QVQLVESGGGLVQAGGSLRLSCAASGFPVMNAGMYWYRQAPGKEREWVAAIESEGTSTYYADSVKGRFTISRDNAKNTVYLQMNSLKPEDTAVYYCNVKDVGDNHFPYDYWGQGTQVTVSA
notes: residues 1-120 modelled; loop library; Synthetic nanobody selected by ribosome and phage display against full-length LRRC8A; For electrophysiology expressed in HEK293 cells with C-terminal Venus-myc-SBP; source: E. coli MC1061, periplasmic expression, purified (Ni-NTA, SEC on Superdex 75)
B3: full-length murine LRRC8A (homomeric hexameric channel), Q80WG5 1-810 (natural protein)
chain: MIPVTELRYFADTQPAYRILKPWWDVFTDYISIVMLMIAVFGGTLQVTQDKMICLPCKWVTKDSCNDSFRGWAASSPEPTYPNSTVLPTPDTGPTGIKYDLDRHQYNYVDAVCYENRLHWFAKYFPYLVLLHTLIFLACSNFWFKFPRTSSKLEHFVSILLKCFDSPWTTRALSETVVEESDPKPAFSKMNGSMDKKSSTVSEDVEATVPMLQRTKSRIEQGIVDRSETGVLDKKEGEQAKALFEKVKKFRTHVEEGDIVYRLYMRQTIIKVIKFALIICYTVYYVHNIKFDVDCTVDIESLTGYRTYRCAHPLATLFKILASFYISLVIFYGLICMYTLWWMLRRSLKKYSFESIREESSYSDIPDVKNDFAFMLHLIDQYDPLYSKRFAVFLSEVSENKLRQLNLNNEWTLDKLRQRLTKNAQDKLELHLFMLSGIPDTVFDLVELEVLKLELIPDVTIPPSIAQLTGLKELWLYHTAAKIEAPALAFLRENLRALHIKFTDIKEIPLWIYSLKTLEELHLTGNLSAENNRYIVIDGLRELKRLKVLRLKSNLSKLPQVVTDVGVHLQKLSINNEGTKLIVLNSLKKMVNLTELELIRCDLERIPHSIFSLHNLQEIDLKDNNLKTIEEIISFQHLHRLTCLKLWYNHIAYIPIQIGNLTNLERLYLNRNKIEKIPTQLFYCRKLRYLDLSHNNLTFLPADIGLLQNLQNLAVTANRIEALPPELFQCRKLRALHLGNNVLQSLPSRVGELTNLTQIELRGNRLECLPVELGECPLLKRSGLVVEEDLFSTLPPEVKERLWRADKEQA
B4: sybody Sb1^LRRC8A (VHH)
VHH: QVQLVESGGGLVQAGGSLRLSCAASGFPVGRHFMYWYRQAPGKEREWVAAIYSYGEYTEYADSVKGRFTISRDNAKNTVYLQMNSLKPEDTAVYYCYVYVGNEYWGQGTQVTVSA
notes: residues 1-116 modelled; concave library; Synthetic nanobody selected by ribosome and phage display against full-length LRRC8A; N-terminal pelB leader for periplasmic expression; For electrophysiology also expressed in HEK293 cells with C-terminal Venus-myc-SBP; source: E. coli MC1061, periplasmic expression, purified (Ni-NTA, SEC on Superdex 75)
B5: sybody Sb4^LRRC8A (VHH)
VHH: QVQLVESGGGSVQAGGSLRLSCAASGYIYQIEYLGWFRQAPGKEREGVAALATWNGQTYYADSVKGRFTVSLDNAKNTVYLQMNSLKPEDTALYYCAAAYEGDTSPLYYEEYGYWGQGTQVTVSA
notes: convex library; Synthetic nanobody selected by ribosome and phage display against full-length LRRC8A; For electrophysiology expressed in HEK293 cells with C-terminal Venus-myc-SBP; source: E. coli MC1061, periplasmic expression, purified (Ni-NTA, SEC on Superdex 75)
B6: sybody Sb2^LRRC8A (VHH)
VHH: QVQLVESGGGLVQAGGSLRLSCAASGFPVYQAWMWWYRQAPGKEREWVAAIESEGQYTWYADSVKGRFTISRDNAKNTVYLQMNSLKPEDTAVYYCNVKDTGHTTNQYDYWGQGTQVTVSA
notes: loop library; Synthetic nanobody selected by ribosome and phage display against full-length LRRC8A; For electrophysiology expressed in HEK293 cells with C-terminal Venus-myc-SBP; source: E. coli MC1061, periplasmic expression, purified (Ni-NTA, SEC on Superdex 75)

Key:
[1] = molecular target: T1, full-length murine LRRC8A (homomeric hexameric channel) (mouse, UniProt Q80WG5); assay: cell-based or functional assay
[2] = molecular target: T2, LRR domain of LRRC8A (soluble cytoplasmic leucine-rich repeat domain of mouse LRRC8A) (Mus musculus, UniProt Q80WG5, chemically biotinylated with amine-reactive NHS-PEG4-Biotin for ELISA and SPR); assay: SPR; Biacore T100; chemically biotinylated LRR domain immobilised on streptavidin chip (~100 RU), sybody as analyte; 20 °C, 10 mM HEPES pH 7.4, 150 mM NaCl, 0.5 mM EDTA, 0.05% Tween 20; multi-cycle kinetics (Sb1, Sb3, Sb4, Sb5) or single-cycle kinetics (Sb2); 1:1 binding model; conditions: both partners purified
T2 construct: LRR domain of mouse LRRC8A, residues 398-810 of NP_808393.1; Used without biotin in SEC and biotinylated in SPR and ELISA; also called LRRC8A-cytosolic domain (LRR); LRRC8A-LRR domain; not shown: SBP, N-terminal, cleaved; myc, N-terminal, cleaved

[3] = molecular target: T1, full-length murine LRRC8A (homomeric …); assay: cryo-EM structure; sybody added to purified full-length LRRC8A at a molar ratio sybody/LRRC8A monomer of 1.25-1.5 (0.5 for Sb4_(0.5)), no further chromatography; C3 symmetry imposed; conditions: both partners purified
[4] = molecular target: T3, full-length murine LRRC8A (homomeric hexameric channel) (mouse), Q80WG5; assay: as above; conditions: remark: other sources report otherwise
T3 chain: B3 chain

Row | Binder | endogenous VRAC current density in HEK293 cells expressing Sb5 compared to non-transfected cells, whole-cell patch clamp, 125 mM (about 50% increase) and 175 mM intracellular salt [1] | Kd [2] | koff [2] | stoichiometry N [3] | stoichiometry N [4] | current density of endogenous VRAC in HEK293 cells, whole-cell patch clamp, 125 mM intracellular salt, 1 µM Sb1 in the pipette solution [1] | endogenous VRAC current density in HEK293 cells expressing Sb4 compared to non-transfected cells, whole-cell patch clamp, 125 mM (about 50% increase) and 175 mM intracellular salt [1]
1 | B1 | ~2.3 fold increase | 175 nM and 170 nM | 0.199 s⁻¹ and 0.242 s⁻¹ | – | – | – | –
2 | B2 | – | 800 nM and 913 nM | 0.104 s⁻¹ and 0.113 s⁻¹ | 6 sybodies per hexameric channel | – | – | –
3 | B3 | – | – | – | – | 6 subunits | – | –
4 | B4 | – | 24 nM and 22 nM | 0.03 s⁻¹ and 0.037 s⁻¹ | 6 sybodies per hexameric channel | – | ~4 fold reduction | –
5 | B5 | – | 27 nM and 17 nM | 0.064 s⁻¹ | – | – | – | ~5 fold increase
6 | B6 | – | 35 nM and 60 nM | 0.003 s⁻¹ | 6 sybodies per hexameric channel | – | – | –
